For this assay, the target named is murine CD47 on mouse pancreatic beta islet cells (MIN6) (murine) (UniProt Q61735). The experiment in a line: cell-based or functional assay.
UniProt Q61735, sequence (Q61735 19-303): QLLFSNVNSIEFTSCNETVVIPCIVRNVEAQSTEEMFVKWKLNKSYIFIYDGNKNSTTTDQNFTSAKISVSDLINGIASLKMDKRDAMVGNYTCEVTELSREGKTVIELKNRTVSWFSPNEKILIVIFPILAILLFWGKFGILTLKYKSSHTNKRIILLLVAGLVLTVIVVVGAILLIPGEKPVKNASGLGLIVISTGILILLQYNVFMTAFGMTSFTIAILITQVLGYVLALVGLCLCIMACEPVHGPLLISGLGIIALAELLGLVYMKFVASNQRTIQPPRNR

For the substance “anti-CD47 blocking antibody (clone MIAP301, SC-12731, Santa Cruz Inc.)”, the relative increase in insulin protein content in glucose stimulated mouse pancreatic beta islet cells relative to vinculin (SDS-PAGE band density) was greater than 2 fold.

The record behind these values is patent US20240091270A1.
